Measurements taken from patent US9803013B2, “Biological materials and uses thereof” (BioInvent International AB, priority 2005, dated 2017).

Legend:
CL-01 B lymphoma cells = assay: Mitochondrial membrane depolarisation assay (JC-1); assay type: cell-based, human; details: CL-01, JC-1 staining, 2 μg/ml IgG cross-linked, 6 h
Method: FIG. 4A. […] Cells were incubated at 37° C. for 6 h and the effect of the antibody incubation was determined by two independent apoptosis assays. Cells were stained either by AV/PI (upper panel), similarly as described above, or by incubation with 5 μg/ml of the mitochondrial membrane depolarisation reagent JC-1 for 30 min at RT (lower panel). Induction of apoptosis is detectable by a decrease in the red (y-axis)/green (x-axis) fluorescence intensity ratio. (FIG. 4B) Histology section showing representative binding of B11 antibody to B lymphoma tissue. Cryo-preserved tissue obtained from a patient with Anaplastic Large Cell B Lymphoma was stained with B11 or FITC-8 (control) scFv antibody. Antibody binding was detected with DAB (brown colour). […] IgG B11 binding to the different cell populations was recorded in the FL4 channel.
Mitochondrial membrane depolarisation was analysed as previously described (Kim et al., Mol. Biol. Cell (2004) 15:420-434). […] Cells were washed twice in ice-cold PBS and resuspended in […] PBS and analysed on a FACS Aria (BD Biosciences). The green and red fluorescence was collected through 494/518 nm (FL-1) and 595/615 nm (FL-2) bandpass filters, respectively. […]

RPMI-8226 myeloma cells = assay: NK-cell deficient NOD/Shi-scid/IL-2Rγ−/− mouse model; assay type: in vivo; details: RPMI-8226 grafted to NOD/Shi-scid/IL-2Rγ−/− mice
Method: (FIG. 20G) Tumor growth in BI-505 or control antibody treated NK-cell deficient NOD/Shi-scid/IL-2Rγ^−/− mice transplanted with RPMI-8226 myeloma cells. ***p<0.001.
Six-eight weeks-old female NOD/Shi-scid IL-2Rγ^−/− mice were obtained from Taconic, Denmark. Five million (5×10^6) RPMI-8226 or U266 tumor cells in 200 μL of RPMI 1640 were intravenously injected into the caudal vein (day 0). The tumor cell injection was performed 2 hr after whole body irradiation of mice (1.5 Gy, Cesium 137, IBL 637). At day 4, mice were randomized into 6 groups and treatment was initiated according to the schedule below.

[1] = test system: endothelial cells (HUVEC, HMVEC); assay: HUVEC and HMVEC apoptosis assay; assay type: cell-based
Method: (FIG. 23G) Antibody-induced endothelial cell apoptosis. HUVEC or HMVEC endothelial cells were incubated with paclitaxel (positive control), BI-505 or isotype control IgG in the presence or absence of cross-linking mAb. Apoptosis was measured by flow-cytometry following staining of cells with Annexin V-AF488.
Based on BI-505's documented ability to confer Fc:FcγR-dependent antitumor activity in malignant B cells, and a proposed general negative role for complement activation with regard to antibody tolerability (Lim et al.; van der Kolk et al., 2001), direct cytotoxic effects (PCD, ADCC, and CDC) of BI-505 in ICAM-1-expressing human peripheral blood B cells and endothelial cells were examined.
HUVEC (Cascade Biologics, pool of donors) and HMVEC (Cascade Biologics) were plated in 6-well plates (80 000-120 000 cells/well) in the presence or absence of 200 U/mL IFNγ, in order to induce ICAM-1 expression. Media was changed the day before apoptosis-induction experiments were performed and titrated concentrations of BI-505, enlimomab or isotype control antibody were added to the cells, in the presence or absence of cross-linking Fab (ab′)2 (same as the B-cell protocol). […] Necrotic cells were identified by increased fluorescence in the FL-4 channel and apoptotic cells by increased signal in the FL-1 channel on a flow cytometer (FACSCalibur, BD Bioscience).

ICAM-1 = ICAM-1 (Homo sapiens, UniProt P05362); assay: Radioiodinated IgG B11 binding to Ramos cells, Rosenthal-Scatchard analysis; parameters: endogenous in cells; host or cells: Ramos B lymphoma cells
Method: Iodination of 1 mg/ml of IgG1 B1 or IgG1 B11 proteins with [^125I] NaI was performed in PBS for 10 min using Iodogen pre-coated iodination tubes (Pierce). Free [^125I] NaI was removed by desalting on PD-10 columns (Amersham Biosciences), yielding specific radioactivities in the range of 1000-1600 cpm per ng protein. [^125I] IgG1 B1 and [^125I] IgG1 B11 was used for determination of antibody affinities.
Radioiodinated IgG B1 or IgG B11 was incubated with B lymphoma cells in DPBS-B-hIgG (DPBS-B containing 0.2 mg/ml human IgG) for 2 h on ice with intermittent mixing. Non-specific binding was determined in the presence of 0.2 mg/ml unlabelled IgG B1 or IgG B11 protein, as appropriate. […]
Cells were loaded on top 40% v/v Ficoll/DPBS-B cushions in individual tubes and were centrifuged at 400×g for 6 min at 4° C. […] Cell pellets and cell supernatants were isolated and analysed separately for ^125I-IgG protein content in a gamma counter, following cutting of the tubes in half.
Antibody affinity constants (Kd values) and epitope numbers per cell were determined from Scatchard plot analysis according to Rosenthal et al. (Anal. Biochem. (1967) 20:525-532); Bylund and Yamamura (Methods in Neurotransmitter Analysed, New York: Raven Press Ltd., 1990); and Marquardt (J. Soc. Indust. Appl. Math. (1963) 11:431-441), as previously described (Brix et al., J. Clin. Invest. (1998) 102:283-293). […]

Chain of ICAM-1 (P05362 28-532): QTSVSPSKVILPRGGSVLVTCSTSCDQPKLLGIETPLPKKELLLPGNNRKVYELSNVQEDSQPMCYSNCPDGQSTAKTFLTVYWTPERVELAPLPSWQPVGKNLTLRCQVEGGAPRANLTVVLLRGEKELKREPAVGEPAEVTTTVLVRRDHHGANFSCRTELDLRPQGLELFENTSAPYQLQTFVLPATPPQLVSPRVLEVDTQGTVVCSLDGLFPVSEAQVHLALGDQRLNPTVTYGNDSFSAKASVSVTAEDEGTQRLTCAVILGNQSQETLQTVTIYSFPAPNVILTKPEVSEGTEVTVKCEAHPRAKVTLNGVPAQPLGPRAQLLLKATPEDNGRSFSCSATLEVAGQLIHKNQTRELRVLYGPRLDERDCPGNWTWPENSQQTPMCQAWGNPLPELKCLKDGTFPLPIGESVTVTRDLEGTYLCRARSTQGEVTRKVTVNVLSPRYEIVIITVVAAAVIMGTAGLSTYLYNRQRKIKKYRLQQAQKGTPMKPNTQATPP

B1: B11: fully human IgG1 antibody specific for ICAM-1; VH and VL sequences of FIG. 10 (SEQ ID NOs. 6 and 8) (antibody, listed as Homo sapiens, V domains shown)
VH: EVQLLESGGGLVQPGGSLRLSCAASGFTFSNAWMSWVRQAPGKGLEWVAFIWYDGSNKYYADSVKGRFTISRDNSKNTLYLQMNSLRAEDTAVYYCARYSGWYFDYWGQGTLVTVSS
VL: QSVLTQPPSASGTPGQRVTISCTGSSSNIGAGYDVHWYQQLPGTAPKLLIYDNNNRPSGVPDRFSGSKSGTSASLAISGLRSEDEADYYCQSYDSSLSAWLFGGGTKLTVLG
CL-01 B lymphoma cells
  mitochondrial membrane depolarisation: induce mitochondrial membrane depolarisation
RPMI-8226 myeloma cells
  antitumor activity: significant antitumor activity
[1]
  cell death in normal cells: did not induce cell death
ICAM-1; Rosenthal-Scatchard plot
  functional binding sites (receptors) per cell: 47,400
ICAM-1; radioiodinated IgG
  concentration at which saturable specific binding is reached: ~1 nM
